Laboratory results taken from publication doi:10.1101/2020.01.27.920827 (bioRxiv, 2020).
Changes are numbered by the printed parent chain. Names and notes keep the numbering of the source.

B1: epsin1 ENTH domain, wild type (Rat Epsin1 WT ENTH 1-164) (domain or fragment)
chain: MSTSSLRRQMKNIVHNYSEAEIKVREATSNDPWGPSSSLMSEIADLTYNVVAFSEIMSMIWKRLNDHGKNWRHVYKAMTLMEYLIKTGSERVSQQCKENMYAVQTLKDFQYVDRDGKDQGVNVREKAKQLVALLRDEDRLREERAHALKTKEKLAQTATASSAA
B2: ENTH WT (C96A A155C) domain, labelled with Atto488 maleimide or Atto532 maleimide (domain or fragment)
chain: B1 chain with C96A, A155C
modifications: Atto488 maleimide (donor population) or Atto532 maleimide (acceptor population), by cysteine modification

How the values were obtained:
[1] = target: the molecule itself; assay: SDS-resistant oligomer bands on SDS-PAGE after liposome co-sedimentation
FRET or BRET = target: the molecule itself; assay: FRET or BRET

Row | Protein | binding result [1] | binding result (FRET or BRET)
1 | B1 | binds | –
2 | B2 | – | binds
